Assay results published in patent publication US20110009473A1 (CEDARS SINAI MEDICAL CENTER, published 2011).

T1: His-tagged PTTG1
T1 chain: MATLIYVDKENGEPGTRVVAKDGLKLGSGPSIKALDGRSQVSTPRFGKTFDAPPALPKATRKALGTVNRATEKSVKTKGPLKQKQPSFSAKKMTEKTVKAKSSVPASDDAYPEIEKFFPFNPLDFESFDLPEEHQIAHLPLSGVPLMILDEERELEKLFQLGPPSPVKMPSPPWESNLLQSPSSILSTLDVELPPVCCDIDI


What was measured:
His-tagged PTTG1 = target: T1, His-tagged PTTG1
BSA = target: T2, BSA (bovine, UniProt P02769 25-607); assay: protein microarray probed with biotinylated PTTG1, Streptavidin-Alexa Fluor 647
T2 construct: Control on the protein microarray; also called bovine serum albumin
Experimental: The human Protoarray nc3.0 study was performed as described by the manufacturer (obtained from Invitrogen Corporation; Carlsbad, Calif.). […] Arrays were scanned by GenePix 4000B (obtained from Molecular Devices Corporation; Sunnyvale, Calif.), and images analyzed using ProtoArray Prospector (Invitrogen).

T2 sequence (P02769 25-607 limits assumed): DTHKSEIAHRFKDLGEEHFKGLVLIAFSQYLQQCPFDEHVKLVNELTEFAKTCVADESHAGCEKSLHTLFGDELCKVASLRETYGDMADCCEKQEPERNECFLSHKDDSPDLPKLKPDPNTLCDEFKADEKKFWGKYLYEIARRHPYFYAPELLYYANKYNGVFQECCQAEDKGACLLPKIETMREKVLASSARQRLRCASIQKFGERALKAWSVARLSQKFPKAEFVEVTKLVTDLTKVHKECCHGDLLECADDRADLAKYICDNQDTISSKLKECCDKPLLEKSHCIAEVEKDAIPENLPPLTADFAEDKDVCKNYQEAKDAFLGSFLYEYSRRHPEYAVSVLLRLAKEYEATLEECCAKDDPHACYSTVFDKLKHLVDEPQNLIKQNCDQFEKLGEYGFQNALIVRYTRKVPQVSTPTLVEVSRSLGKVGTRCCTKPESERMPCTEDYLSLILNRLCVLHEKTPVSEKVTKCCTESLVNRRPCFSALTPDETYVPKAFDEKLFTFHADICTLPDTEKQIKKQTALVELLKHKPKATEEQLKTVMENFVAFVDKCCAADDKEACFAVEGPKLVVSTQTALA

Binder	Aurora Kinase A phosphorylation of histone H3 (Ser10), in vitro kinase assay, Western blot (control His-GST protein)	Aurora Kinase A phosphorylation of histone H3 (Ser10), in vitro kinase assay, Western blot (His-tagged PTTG1)	binding result (BSA)
GST-Aurora Kinase A (protein) MDRSKENCISGPVKATAPVGGPKRVLVTQQFPCQNPLPVNSGQAQRVLCPSNSSQRIPLQAQKLVSSHKPVQNQKQKQLQATSVPHPVSRPLNNTQKSKQPLPSAPENNPEEELASKQKNEESKKRQWALEDFEIGRPLGKGKFGNVYLAREKQSKFILALKVLFKAQLEKAGVEHQLRREVEIQSHLRHPNILRLYGYFHDATRVYLILEYAPLGTVYRELQKLSKFDEQRTATYITELANALSYCHSKRVIHRDIKPENLLLGSAGELKIADFGWSVHAPSSRRTTLCGTLDYLPPEMIEGRMHDEKVDLWSLGVLCYEFLVGKPPFEANTYQETYKRISRVEFTFPDFVTEGARDLISRLLKHNPSQRPMLREVLEHPWITANSSKPSNCQNKESASKQS	GST-His has no effect at the same concentration	Addition of PTTG1 dose-dependently inhibited Aurora Kinase A histone H3 phosphorylation	
pituitary tumor transforming gene 1 (PTTG1) protein (other, biotinylated with biotin-XX sulfosuccinimidyl ester (protein array); biotin-lysine labeled during synthesis (as prey in pull-down); endogenous and unlabeled in co-immunoprecipitation, Used as biotinylated probe on the array, as endogenous protein of HCT116 lysates in co-IP, and as in vitro translated prey in the pull-down; also called securin) MATLIYVDKENGEPGTRVVAKDGLKLGSGPSIKALDGRSQVSTPRFGKTFDAPPALPKATRKALGTVNRATEKSVKTKGPLKQKQPSFSAKKMTEKTVKAKSSVPASDDAYPEIEKFFPFNPLDFESFDLPEEHQIAHLPLSGVPLMILDEERELEKLFQLGPPSPVKMPSPPWESNLLQSPSSILSTLDVELPPVCCDIDI			no binding
